Results reported in the supplement of paper PMC10126150.
± gives the standard deviation of the averaged measurements.

Tested on: ATP
Experiment: switch fluorescence ratio, 500 uM ATP over buffer (Cy3 cluster intensity, sum of 5 cycles each) (fold (ratio)); higher = stronger signal-on switching upon ATP binding; sequences stand for … in TCGTCGGCAGCGTCAGATGTGTATAAGAGACAGTTTTTTTTTTTTTTTTTTTTTTTTT…TC
Conditions: aptamer strand: ATP DNA aptamer (quencher-CACCTGGGGGAGTATTGCGGAGGAAGG + anchor), 100 nM annealed; ATP concentration: 500 uM
Procedure, shortened: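 Clusters with intensities outside 100-1000 RFU were excluded. The remaining Cy3-labelled switching-strand clusters on a modified Illumina MiSeq flow-cell had been annealed to 100 nM quencher-labelled ATP aptamer and imaged in selection buffer, then after 15 min with 500 uM ATP at 22 °C, for five cycles separated by NaOH stripping and re-annealing. The fluorescence ratio, averaged per switch-domain sequence, is each cluster's summed target-cycle Cy3 intensity over its summed buffer-cycle Cy3 intensity.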
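Also: ATP exposure 15 min at 22 °C before imaging.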

Sequence	switch fluorescence ratio
CATGGGAATT	0.982 ± 0.032
GGCTCTCGTA	0.992 ± 0.012
TTGCTCTGGA	1.02 ± 0.015
TTGAAGGGTG	1.05 ± 0.11
TCCCTCAGGG	1.46 ± 0.078
TAATCGGGCG	1.02 ± 0.022
AGGGGGTAGG	0.978 ± 0.022
ATGTTGTGCT	0.984 ± 0.045
ACACGTTTTT	1 ± 0.014
TGCTTTTAGG	0.996 ± 0.017
TTAGACCGAA	1.031 ± 0.0088
TTTAAGAGAT	0.998 ± 0.028
TGGGAAGGTG	1.7 ± 0.33
TACAAGGCTT	0.993 ± 0.027
TAAAAGATCG	1.03 ± 0.034
TTTTGCAAAT	1.13 ± 0.11
GTTTTAAATG	0.975 ± 0.016
AATAGTACAA	1.04 ± 0.0056
TTCCAGGTGG	1.42 ± 0.14
TGAGAGTGGG	1.01 ± 0.021
GAGAGATGGG	0.988 ± 0.018
TTGTCACGGG	1.02 ± 0.05

Sequence	switch fluorescence ratio
GGTTTCGCGA	1.07 ± 0.053
TGTGCGTGAG	0.9776 ± 0.0015
GATTTGCAGG	0.983 ± 0.033
TAGATGTAAC	0.975 ± 0.029
CAAGTCAAGG	1.007 ± 0.0062
AGATGAAGTG	0.99 ± 0.019
AGGAATGTTA	1.03 ± 0.018
TAGATTGATG	1.0281 ± 0.00078
TGGGGGATGG	0.996 ± 0.057
TGAAGGACGT	0.996 ± 0.019
AGGGAGGGAT	1.01 ± 0.027
CGAGGGTGTA	0.999 ± 0.0014
TATAATCGAG	1 ± 0.014
ACAATGAGTG	1.003 ± 0.0011
GGAGAGGTTT	1.05 ± 0.059
TGGGTAGAAC	1.12 ± 0.13
TAGTCCATCG	0.998 ± 0.012
TCGGGTTTTC	1 ± 0.039
TTTGAAGACA	0.991 ± 0.028
TTTGTAAAAT	0.99 ± 0.021
TGGTTTGGGA	1 ± 0.029
GAGATTGGTT	1.007 ± 0.0072

Sequence	switch fluorescence ratio
GGGATAAGGG	1.01 ± 0.027
TGATAAATAC	1.33 ± 0.069
ATCATGGTGC	1.13 ± 0.074
TACGGTGTGC	0.989 ± 0.024
AACGAGTGGG	1.03 ± 0.019
GCGACCGTGT	0.9908 ± 0.0014
ACTTGCGTCG	0.981 ± 0.023
TGAGGCCGAA	1.015 ± 0.0088
CTATCCGGAC	1.25 ± 0.014
TTTGGGGGTC	1.1 ± 0.24
TGTATTTTTA	1.01 ± 0.029
GAAAAAGGCG	1.01 ± 0.043
GTGACTTAGT	1.03 ± 0.02
GCTGTTTGTA	0.999 ± 0.03
AGGGGTGGGG	1 ± 0.029
TAGCAGGGTC	1.089 ± 0.0072
CTATTGTGGA	0.999 ± 0.019
GTTAACGGAC	1.17 ± 0.098
GTTGATTTAT	0.983 ± 0.024
AGGAGGTGGT	1.04 ± 0.015
TGCTAGTACC	1.054 ± 0.0036
GGGTAGTAGT	0.958 ± 0.035

Sequence	switch fluorescence ratio
ATCAGGGCAA	1.26 ± 0.18
GGTTTCCTGG	0.971 ± 0.031
GATGCTAGAT	1.01 ± 0.026
GCAGCACGCA	1.03 ± 0.032
CCATTTTGCA	1.04 ± 0.05
ATGTCAGGGT	0.9732 ± 0.0086
CGGGGGGCAG	1.01 ± 0.024
GGCACAGATG	1.02 ± 0.015
AGAAAAGGGA	0.995 ± 0.017
AGCGACCCGG	1.08 ± 0.033
TGCTTGTCTC	1 ± 0.013
TATTAGTGGC	0.9403 ± 0.0088
TGTTAAGGAA	1.02 ± 0.029
GATTTGTGGG	0.994 ± 0.024
GAAGGAGTGC	1.07 ± 0.018
TATTGACAGA	1.022 ± 0.0053
GCGCGCTAAG	0.977 ± 0.035
GATGAAGGTA	0.991 ± 0.052
GTTTGCTACG	1.005 ± 0.004
